Numbered stars: 1 amine (or outer) side, 2 acyl side, 3 side chain; on linkers, the order of the positions; unused ones are H or OH. Bridge positions count the residues as written; N and C are the ends. Side chains are listed from the residue outwards. Ends that are not written are not given here. * marks the point of attachment. C20 diacid = O=C(O)CCCCCCCCCCCCCCCCCCC(=O)*; γGlu = O=C(O)[C@H](CCC(=O)[*:2])N[*:1]
T1: rat amylin receptor (rat calcitonin receptor + rat RAMP 3) (rat, UniProt P32214 25-516; Q9JJ73 23-147)
T1 construct: whole, on cells; Used as membranes prepared from BHK tk'ts 13 cells transiently transfected with rat calcitonin receptor and rat RAMP 3 (Assay VI); also called rAmylin-R; rat amylin 3(a) receptor
T1 sequence (looked up) 1: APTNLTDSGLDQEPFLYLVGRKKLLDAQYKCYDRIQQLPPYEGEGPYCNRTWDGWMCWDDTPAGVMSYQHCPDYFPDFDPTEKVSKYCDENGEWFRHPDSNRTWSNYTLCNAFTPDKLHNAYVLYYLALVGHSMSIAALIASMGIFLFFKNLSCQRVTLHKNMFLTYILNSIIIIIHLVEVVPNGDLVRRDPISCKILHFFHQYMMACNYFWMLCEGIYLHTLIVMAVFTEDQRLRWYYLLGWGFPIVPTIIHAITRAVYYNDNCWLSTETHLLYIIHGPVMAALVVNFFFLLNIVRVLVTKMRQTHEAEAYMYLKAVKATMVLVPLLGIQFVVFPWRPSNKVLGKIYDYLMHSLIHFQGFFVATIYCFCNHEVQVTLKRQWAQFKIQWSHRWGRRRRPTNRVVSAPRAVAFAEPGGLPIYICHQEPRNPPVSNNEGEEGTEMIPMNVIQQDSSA
T1 sequence (looked up) 2: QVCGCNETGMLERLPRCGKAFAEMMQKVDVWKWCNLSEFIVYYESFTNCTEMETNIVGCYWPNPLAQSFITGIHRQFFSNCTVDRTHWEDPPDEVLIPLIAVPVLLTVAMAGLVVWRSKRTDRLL

T2: rat calcitonin receptor (rat, UniProt P32214 25-516)
T2 construct: whole, on cells; Used as membranes prepared from BHK tk'ts 13 cells transiently transfected with the rat calcitonin receptor (Assay VIII); also called rCTR; rat calcitonin (a) receptor
T2 sequence (looked up): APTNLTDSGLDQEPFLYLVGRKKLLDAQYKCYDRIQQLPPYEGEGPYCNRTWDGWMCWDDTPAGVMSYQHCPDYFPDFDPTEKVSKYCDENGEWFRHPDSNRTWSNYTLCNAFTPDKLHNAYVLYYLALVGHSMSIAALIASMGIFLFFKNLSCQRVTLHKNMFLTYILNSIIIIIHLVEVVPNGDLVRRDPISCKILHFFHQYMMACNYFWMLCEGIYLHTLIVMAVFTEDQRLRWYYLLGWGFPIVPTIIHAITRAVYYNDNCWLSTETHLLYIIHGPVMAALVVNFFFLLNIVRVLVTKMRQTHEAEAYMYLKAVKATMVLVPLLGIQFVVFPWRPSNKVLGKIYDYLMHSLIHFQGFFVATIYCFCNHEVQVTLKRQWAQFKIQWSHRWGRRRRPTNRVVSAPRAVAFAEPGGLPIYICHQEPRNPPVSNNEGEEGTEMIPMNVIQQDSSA

T3: human calcitonin receptor (human, UniProt P30988 25-474)
T3 construct: whole, on cells; Used as membranes prepared from a BHK tk'ts 13 cell line stably transfected with the human calcitonin receptor (Assay VII); also called hCTR; hCT
T3 sequence (looked up): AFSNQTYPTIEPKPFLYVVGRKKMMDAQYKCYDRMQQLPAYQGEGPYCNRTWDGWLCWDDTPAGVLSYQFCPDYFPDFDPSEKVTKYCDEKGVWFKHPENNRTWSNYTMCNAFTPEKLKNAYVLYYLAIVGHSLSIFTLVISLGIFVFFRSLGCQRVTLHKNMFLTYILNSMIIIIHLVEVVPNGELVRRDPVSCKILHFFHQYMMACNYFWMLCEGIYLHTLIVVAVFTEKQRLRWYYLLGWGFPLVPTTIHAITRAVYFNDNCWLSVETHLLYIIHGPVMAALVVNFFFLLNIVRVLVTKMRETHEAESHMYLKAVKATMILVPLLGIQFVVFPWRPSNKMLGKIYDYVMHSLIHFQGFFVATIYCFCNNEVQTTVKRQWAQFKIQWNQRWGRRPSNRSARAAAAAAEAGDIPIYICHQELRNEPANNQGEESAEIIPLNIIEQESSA


Key:
[1] = target: T1, rat amylin receptor (rat calcitonin …); assay: SPA competition with 125I-rat amylin, membranes of BHK cells with rat CTR + rat RAMP3 (Assay VI)
rat calcitonin receptor [2] = target: T2, rat calcitonin receptor; assay: SPA competition with 125I-calcitonin, membranes of BHK cells with rat CTR (Assay VIII)
rat calcitonin receptor [3] = target: T2, rat calcitonin receptor; assay: IC50 on rat CTR divided by IC50 on rat amylin receptor (Assays VIII/VI)
[4] = target: T3, human calcitonin receptor; assay: IC50 on human CTR divided by IC50 on human amylin receptor (Assays VII/V)
Method in brief: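 Competition binding by SPA uses membrane preparations (35 ng/μL final) in pH 7.4 Hepes buffer with 1 mM CaCl2 and 5 mM MgCl₂. Incubation lasts 120 min at 25° C, and IC₅₀ comes from one-site fitting.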

Row | Binder | IC50 [1] | IC50 (rat calcitonin receptor [2]) | Ratio rCT/rAmylin binding (rat calcitonin receptor [3]) | Ratio hCT/hAmylin binding [4]
1 | K([γGlu-C20 diacid])CNTATCATQRLAHFLRHSSPNFGAIPSSTNVGSHTY-NH2 (disulfide 2-7; N-terminus assumed; SMILES CC[C@H](C)[C@H](NC(=O)[C@H](C)NC(=O)CNC(=O)[C@H](Cc1ccccc1)NC(=O)[C@H](CC(N)=O)NC(=O)[C@@H]1CCCN1C(=O)[C@H](CO)NC(=O)[C@H](CO)NC(=O)[C@H](Cc1c[nH]cn1)NC(=O)[C@H](CCCNC(=N)N)NC(=O)[C@H](CC(C)C)NC(=O)[C@H](Cc1ccccc1)NC(=O)[C@H](Cc1c[nH]cn1)NC(=O)[C@H](C)NC(=O)[C@H](CC(C)C)NC(=O)[C@H](CCCNC(=N)N)NC(=O)[C@H](CCC(N)=O)NC(=O)[C@@H](NC(=O)[C@H](C)NC(=O)[C@@H]1CSSC[C@H](NC(=O)[C@@H](N)CCCCNC(=O)CC[C@H](NC(=O)CCCCCCCCCCCCCCCCCCC(=O)O)C(=O)O)C(=O)N[C@@H](CC(N)=O)C(=O)N[C@@H]([C@@H](C)O)C(=O)N[C@@H](C)C(=O)N[C@@H]([C@@H](C)O)C(=O)N1)[C@@H](C)O)C(=O)N1CCC[C@H]1C(=O)N[C@@H](CO)C(=O)N[C@@H](CO)C(=O)N[C@H](C(=O)N[C@@H](CC(N)=O)C(=O)N[C@H](C(=O)NCC(=O)N[C@@H](CO)C(=O)N[C@@H](Cc1c[nH]cn1)C(=O)N[C@H](C(=O)N[C@@H](Cc1ccc(O)cc1)C(N)=O)[C@@H](C)O)C(C)C)[C@@H](C)O, Analogue of human amylin; also called compound 66) | 0.581 nM | 20.8 nM | 35.8 | 45.5
2 | K([γGlu-C20 diacid])CNTATCATQRLAHFLRHSSPNFGAIPSSTNVGPNTY-NH2 (disulfide 2-7; N-terminus assumed; SMILES CC[C@H](C)[C@H](NC(=O)[C@H](C)NC(=O)CNC(=O)[C@H](Cc1ccccc1)NC(=O)[C@H](CC(N)=O)NC(=O)[C@@H]1CCCN1C(=O)[C@H](CO)NC(=O)[C@H](CO)NC(=O)[C@H](Cc1c[nH]cn1)NC(=O)[C@H](CCCNC(=N)N)NC(=O)[C@H](CC(C)C)NC(=O)[C@H](Cc1ccccc1)NC(=O)[C@H](Cc1c[nH]cn1)NC(=O)[C@H](C)NC(=O)[C@H](CC(C)C)NC(=O)[C@H](CCCNC(=N)N)NC(=O)[C@H](CCC(N)=O)NC(=O)[C@@H](NC(=O)[C@H](C)NC(=O)[C@@H]1CSSC[C@H](NC(=O)[C@@H](N)CCCCNC(=O)CC[C@H](NC(=O)CCCCCCCCCCCCCCCCCCC(=O)O)C(=O)O)C(=O)N[C@@H](CC(N)=O)C(=O)N[C@@H]([C@@H](C)O)C(=O)N[C@@H](C)C(=O)N[C@@H]([C@@H](C)O)C(=O)N1)[C@@H](C)O)C(=O)N1CCC[C@H]1C(=O)N[C@@H](CO)C(=O)N[C@@H](CO)C(=O)N[C@H](C(=O)N[C@@H](CC(N)=O)C(=O)N[C@H](C(=O)NCC(=O)N1CCC[C@H]1C(=O)N[C@@H](CC(N)=O)C(=O)N[C@H](C(=O)N[C@@H](Cc1ccc(O)cc1)C(N)=O)[C@@H](C)O)C(C)C)[C@@H](C)O, Analogue of human amylin; also called compound 67) | 0.172 nM | 14.7 nM | 85.4 | 51.6
3 | KCNTATCATQRLADFLRHSSK([γGlu-γGlu-C20 diacid])NFGAIPSSTNVGSDTY-NH2 (disulfide 2-7; N-terminus assumed; SMILES CC[C@H](C)[C@H](NC(=O)[C@H](C)NC(=O)CNC(=O)[C@H](Cc1ccccc1)NC(=O)[C@H](CC(N)=O)NC(=O)[C@H](CCCCNC(=O)CC[C@H](NC(=O)CC[C@H](NC(=O)CCCCCCCCCCCCCCCCCCC(=O)O)C(=O)O)C(=O)O)NC(=O)[C@H](CO)NC(=O)[C@H](CO)NC(=O)[C@H](Cc1c[nH]cn1)NC(=O)[C@H](CCCNC(=N)N)NC(=O)[C@H](CC(C)C)NC(=O)[C@H](Cc1ccccc1)NC(=O)[C@H](CC(=O)O)NC(=O)[C@H](C)NC(=O)[C@H](CC(C)C)NC(=O)[C@H](CCCNC(=N)N)NC(=O)[C@H](CCC(N)=O)NC(=O)[C@@H](NC(=O)[C@H](C)NC(=O)[C@@H]1CSSC[C@H](NC(=O)[C@@H](N)CCCCN)C(=O)N[C@@H](CC(N)=O)C(=O)N[C@@H]([C@@H](C)O)C(=O)N[C@@H](C)C(=O)N[C@@H]([C@@H](C)O)C(=O)N1)[C@@H](C)O)C(=O)N1CCC[C@H]1C(=O)N[C@@H](CO)C(=O)N[C@@H](CO)C(=O)N[C@H](C(=O)N[C@@H](CC(N)=O)C(=O)N[C@H](C(=O)NCC(=O)N[C@@H](CO)C(=O)N[C@@H](CC(=O)O)C(=O)N[C@H](C(=O)N[C@@H](Cc1ccc(O)cc1)C(N)=O)[C@@H](C)O)C(C)C)[C@@H](C)O, Analogue of human amylin; also called compound 59) | 0.659 nM | 18.8 nM | 28.5 | 4.3

Continued by falling IC50 [1], values first:

Row | IC50 [1] | IC50 (rat calcitonin receptor [2]) | Ratio rCT/rAmylin binding (rat calcitonin receptor [3]) | Ratio hCT/hAmylin binding [4] | Binder
4 | 0.42 nM | 18 nM | 42.8 | 63 | K([γGlu-C20 diacid])CNTATCATQRLAHFLRHSSPNFGAIPSSTPVGSNTY-NH2 (disulfide 2-7; N-terminus assumed; SMILES CC[C@H](C)[C@H](NC(=O)[C@H](C)NC(=O)CNC(=O)[C@H](Cc1ccccc1)NC(=O)[C@H](CC(N)=O)NC(=O)[C@@H]1CCCN1C(=O)[C@H](CO)NC(=O)[C@H](CO)NC(=O)[C@H](Cc1c[nH]cn1)NC(=O)[C@H](CCCNC(=N)N)NC(=O)[C@H](CC(C)C)NC(=O)[C@H](Cc1ccccc1)NC(=O)[C@H](Cc1c[nH]cn1)NC(=O)[C@H](C)NC(=O)[C@H](CC(C)C)NC(=O)[C@H](CCCNC(=N)N)NC(=O)[C@H](CCC(N)=O)NC(=O)[C@@H](NC(=O)[C@H](C)NC(=O)[C@@H]1CSSC[C@H](NC(=O)[C@@H](N)CCCCNC(=O)CC[C@H](NC(=O)CCCCCCCCCCCCCCCCCCC(=O)O)C(=O)O)C(=O)N[C@@H](CC(N)=O)C(=O)N[C@@H]([C@@H](C)O)C(=O)N[C@@H](C)C(=O)N[C@@H]([C@@H](C)O)C(=O)N1)[C@@H](C)O)C(=O)N1CCC[C@H]1C(=O)N[C@@H](CO)C(=O)N[C@@H](CO)C(=O)N[C@H](C(=O)N1CCC[C@H]1C(=O)N[C@H](C(=O)NCC(=O)N[C@@H](CO)C(=O)N[C@@H](CC(N)=O)C(=O)N[C@H](C(=O)N[C@@H](Cc1ccc(O)cc1)C(N)=O)[C@@H](C)O)C(C)C)[C@@H](C)O, Analogue of human amylin; also called compound 62)
5 | 0.355 nM | 34.2 nM | 96.5 | 60.8 | K([γGlu-C20 diacid])CNTATCATQRLAHFLRHSSPNFGAIPSSTNVGSNTY-NH2 (disulfide 2-7; N-terminus assumed; SMILES CC[C@H](C)[C@H](NC(=O)[C@H](C)NC(=O)CNC(=O)[C@H](Cc1ccccc1)NC(=O)[C@H](CC(N)=O)NC(=O)[C@@H]1CCCN1C(=O)[C@H](CO)NC(=O)[C@H](CO)NC(=O)[C@H](Cc1c[nH]cn1)NC(=O)[C@H](CCCNC(=N)N)NC(=O)[C@H](CC(C)C)NC(=O)[C@H](Cc1ccccc1)NC(=O)[C@H](Cc1c[nH]cn1)NC(=O)[C@H](C)NC(=O)[C@H](CC(C)C)NC(=O)[C@H](CCCNC(=N)N)NC(=O)[C@H](CCC(N)=O)NC(=O)[C@@H](NC(=O)[C@H](C)NC(=O)[C@@H]1CSSC[C@H](NC(=O)[C@@H](N)CCCCNC(=O)CC[C@H](NC(=O)CCCCCCCCCCCCCCCCCCC(=O)O)C(=O)O)C(=O)N[C@@H](CC(N)=O)C(=O)N[C@@H]([C@@H](C)O)C(=O)N[C@@H](C)C(=O)N[C@@H]([C@@H](C)O)C(=O)N1)[C@@H](C)O)C(=O)N1CCC[C@H]1C(=O)N[C@@H](CO)C(=O)N[C@@H](CO)C(=O)N[C@H](C(=O)N[C@@H](CC(N)=O)C(=O)N[C@H](C(=O)NCC(=O)N[C@@H](CO)C(=O)N[C@@H](CC(N)=O)C(=O)N[C@H](C(=O)N[C@@H](Cc1ccc(O)cc1)C(N)=O)[C@@H](C)O)C(C)C)[C@@H](C)O, Analogue of human amylin; also called compound 70) [N^ε1-[(4S)-4-carboxy-4-(19-carboxynonadecanoylamino)butanoyl]-[His14,Arg17,Pro21,Pro27]-h-amylin]

Source: patent publication US20140087995A1 (published 2014)
